According to the DeepSol protein solubility set:

assay: soluble on expression in E. coli; label from the status in PepcDB or PDB records

For “MIFPVARYALRWLRRPEDRAFSRAAMEMALRGVRKVLCVAEKNDAAKGIADLLSNGRMRRREGLSKFNKIYEFDYHLYGQNVTMVMTSVSGHLLAHDFQMQFRKWQSCNPLVLFEAEIEKYCPENFVDIKKTLERETRQCQALVIWTDCDREGENIGFEIIHVCKAVKPNLQVLRARFSEITPHAVRTACENLTEPDQRVSDAVDVRQELDLRIGAAFTRFQTLRLQRIFPEVLAEQLISYGSCQFPTLGFVVERFKAIQAFVPEIFHRIKVTHDHKDGIVEFNWKRHRLFNHTACLVLYQLCVEDPMATVVEVRSKPKSKWRPQALDTVELEKLASRKLRINAKETMRIAEKLYTQGYISYPRTETNIFPRDLNLTVLVEQQTPDPRWGAFAQSILERGGPTPRNGNKSDQAHPPIHPTKYTNNLQGDEQRLYEFIVRHFLACCSQDAQGQETTVEIDIAQERFVAHGLMILARNYLDVYPYDHWSDKILPVYEQGSHFQPSTVEMVDGETSPPKLLTEADLIALMEKHGIGTDATHAEHIETIKARMYVGLTPDKRFLPGHLGMGLVEGYDSMGYEMSKPDLRAELEADLKLICDGKKDKFVVLRQQVQKYKQVFIEAVAKAKKLDEALAQYFGNGTELAQQEDIYPAMPEPIRKCPQCNKDMVLKTKKNGGFYLSCMGFPECRSAVWLPDSVLEASRDSSVCPVCQPHPVYRLKLKFKRGSLPPTMPLEFVCCIGGCDDTLREILDLRFSGGPPRASQPSGRLQANQSLNRMDNSQHPQPADSRQTGSSKALAQTLPPPTAAGESNSVTCNCGQEAVLLTVRKEGPNRGRQFFKCNGGSCNFFLWADSPNPGAGGPPALAYRPLGASLGCPPGPGIHLGGFGNPGDGSGSGTSCLCSQPSVTRTVQKDGPNKGRQFHTCAKPREQQCGFFQWVDENTAPGTSGAPSWTGDRGRTLESEARSKRPRASSSDMGSTAKKPRKCSLCHQPGHTRPFCPQNR”, which “soluble on expression in E. coli” value is on record?
The value was “soluble”.

With “MNLKDMEQNSAKAVVLLKAMANERRLQILCMLHNQELSVGELCAKLQLSQSALSQHLAWLRRDGLVTTRKEAQTVYYTLKSEEVKAMIKLLHSLYCEE” as the sequence, how does the “soluble on expression in E. coli” value read?
Its value is “soluble”.

For “MNFLLILTLISIIVRSRQENASMDPCNDFYDYVCTNDTRSITKLNFASLFDDREILKPNISFPNNGTYIALDQILEPDRLMKWYMTVKSLDTATVDLEYFFETHYEYISKKNDSEKFSFAVETLENVNLTLTNIFYNSLYANIKVLNQLNLPAAEENKFLHHISNLLKNNTIEEIWSSSLSNKSKKVLDEELNNSKVFFGLLDYNNVTMLEETKLVYETEYYRLKSLLSSDDLDTEIAEKILRLGAIDTATKYLAKRIPGYEPEFLFSAFASNMENEAFKHNSAIYAGIVTRSDLQQPMLAIADTVSVLAHELMHFVYPSGTELLTPNVTKAAKKCTQDEVKRMGDSDVVKPIDGWFSKKVTHEDLANIMGLRMVMKMVARKSASEEQLKNALETLLSGLCIQGKPKNSILPHHHPFEISINTAVRQYPLFSSLYGCRLGDRMFAEAEQFCKPLGGEVNLEDYKIKNDTEDIGGFFTYIMDTANAFNFSFRN”, which “soluble on expression in E. coli” value is on record?
Its value is “not soluble”.

Which “soluble on expression in E. coli” value does the source give for “MAVDMFIKIGDVKGESKDKTHAEEIDVLAWSWGMSQSGSMHMGGGGGAGKVNVQDLSFTKYIDKSTPNLMMACSSGKHYPQAKLTIRKAGGENQVEYLIITLKEVLVSSVSTGGSGGEDRLTENVTLNFAQVQVDYQPQKADGAKDGGPVKYGWNIRQNVQA” here?
The value was “soluble”.

Which “soluble on expression in E. coli” value does the source give for “EGDKVTGEVQQVEDKQVVVHINGGKFNGIIPISQLSTHHIENPSEVVKVGDEVEAYVTKIEFDEENDTGAYILSKRQ” here?
Its value is “not soluble”.

With “MMNEKILIVDDQYGIRILLNEVFNKEGYQTFQAANGLQALDIVTKERPDLVLLDMKIPGMDGIEILKRMKVIDENIRVIIMTAYGELDMIQESKELGALTHFAKPFDIDEIRDAVKKYLPLKSN” as the sequence, how does the “soluble on expression in E. coli” value read?
Its value is “soluble”.

With “MSLGNPHMPLLLALSKGFVEPVYRAAFLASAASSGVLAALAVRPCDLESLAERLDIDDEDLPRLKEWLDMGIRLGDLGKREGCYKLRSLPAKALAQPGNDAIAAALEEVLRFHVPALLNGPRMLREGRRFSLDDQDGLVIARSTRVIQPLVEEAIARTLDRNAPVRLLEVGCGSGTYVRYAAELNPRLSALAVDLQQDVADSAAANMAEWGLTDRVETRQADLRTLDAQPQFDLVTLHNNIYYFPEAERVEALRRAHDLLAPGGRLLLTTSCKGGNVGLEALNLWFTYADFGGPLPQADALADQLRQAGFDDVEATRIVPGEQFHAFTGTSKRVAHAEGHHHHHH” as the sequence, how does the “soluble on expression in E. coli” value read?
The value was “not soluble”.

For “RRLETQKEAEANRGYGKPSLGGPFHLEDMYGNEFTEKNLLGKFSIIYFGFSNCPDICPDELDKLGLWLNTLSSKYGITLQPLFITCDPARDSPAVLKEYLSDFHPSILGLTGTFDEVKNACKKYRVYFSTPPNVKPGQDYLVDHSIFFYLMDPEGQFVDALGRNYDEKTGVDKIVEHVKSYVPAEQRAKQKEAWYSFLFK”, which “soluble on expression in E. coli” value is on record?
The value was “soluble”.

With “MHIKYDQAMDDETKVEAILYATRNPLSVRSISLILGIEAGAISRIIKKLRLEYKKRNTSLEIAKIGNKYRIQLKKEYYDFAYRVMEPELSKYETGFLATVALNEGASLSFFRKRYGSRTDDMISKLKTMSLIRTSKKGNGTAIYLGENFEKVFGITKKELLERATEYDRQN” as the sequence, how does the “soluble on expression in E. coli” value read?
Its value is “soluble”.

For “SISQQTVWNQMATVRTPLNFDSSKQSFCQFSVDLLGGGISVDKTGDWITLVQNSPISNLLRVAAWKKGCLMVKVVMSGNAAVKRSDWASLVQVFLTNSNSTEHFDACRWTKSEPHSWELIFPIEVCGPNNGFEMWSSEWANQTSWHLSFLVDNPKQSTTFDVLLGISQNFEIAGNTLMPAFSVPQANARSSENAESSA”, which “soluble on expression in E. coli” value is on record?
The value was “soluble”.

Which “soluble on expression in E. coli” value does the source give for “MAHHHHHHMEHQYFFIEATWLEAAAAGICSRNGIILKDAIAKAEKGIPVQIKNDSAPTMRSLIQTTHASLEQACERYLHQNARNLRLTRASKPTPAVEALNEAERASCRELVVRIAITGALTQYQRCTRKCILQDSSSLSPSLSHPAVSASKTVQGNGVTDKQLERSFQTTLLKGLLYAFESFQECHSMNRDHYPPRVDSNTPGTVGWDTLVLLYLVHRIPQVARHASGSAIDDCIGQVIRTWRKLLVALQSVDAQEAPEHSRRRGALSLVNGLLIILFQRYNTHQCAVLLGAVEHAETVAESSKEPARSILHPSRHMVSEVVTYHYYQGRMRLYERKLDEAHRILRIAYTLLPPAGFGNEPQRLNKERVRFFLSVAGVANGRRIPDEILRADEDLLPRLFGSLTAAIERGDPVCFSAALDSHASTFHRRGVYLILQQAKILCYLMVVARVHAAMAALSDVDNSRITIPTLLAAYTYITSEKPQSGKSSAESKKRSRDDEAVSPVSEARMAESVMDEDRMALWIAKLIARGYVRGYYSHEHKTLVLSKKVPFPLLQEEV” here?
Its value is “not soluble”.

With “MVYLLDLSGVYCEPVEPRLLRLLAEESGEPVFYLSEAFYALLPRLKAEGAQALEALFPGASRLYPKAFRPRGLAFPEPFHLVSDLPPPEGVLAYHAPDKLEALALALEALGLAPGEAVYWDDNPLWVERARGLGVRAELFLP” as the sequence, how does the “soluble on expression in E. coli” value read?
The value was “soluble”.

Which “soluble on expression in E. coli” value does the source give for “MGRCYNNIVIDASIEAVWQQIGNFHDMSWAKGVITSLVKVGPASGTEVGAKRILNDAIHETLVSLDSSNYTFTYSIDDGPDAIAKSAVDNYLGMVNLSESSTGVLVEWSSSFTSDNEKAVTEFCDPIYMALLGALKNSLRLEHHHHHH” here?
Its value is “soluble”.

Which “soluble on expression in E. coli” value does the source give for “MAHHHHHHMVVSLIGPLDSPYVQRTLLVAAYAGIQLKLVPIQIGRENETEEYRLNCHPMQRVPVMKTDEGYLFESNAMIRYLARTEVMLVSVSAGIDSAGANNEKIPHPQYPIPYAMYGHSLLESTQVDSWLDFAITRIDFYTRQFFAYEHKTGPKPAADMKTLLCKSLDGLERRVAYLKEACRALVQQSGSLTSRSVMTDEELVWNEEDYMASRATRDSRLSSVYNVAGSIRQRHMEKERQEREKQLMLIKKTTDDALGKEEGADDPHHPSRRPSVSRDSMAISATPRASVLMSARSTMGSAAPGVQRHDLLFLVGGSLTAADLVMAMSLHGVLCCQELKPVLTSKYPNLFKYYKSVLMLPVAAEVRKAIRLSIIKE” here?
The value was “soluble”.

Which “soluble on expression in E. coli” value does the source give for “MKKERKPKIVIMGGGTGLSVLLRGLKQYPVDITAVVTIADDGGSSGRLRDELEIPPPGDIRNVLVALSDVEPLVEALFQHRFTTGDGLKGHALGNLLLAGMTSITGDFFHAITETSKVLNVRGRVLPAANQSAVLHAELEDGEIVTGESKIPYYGKKINRVFLTPEDVEPLHETLAEIKRADLLVFGPGSLYTSILPNLVVNKIGDAVLAAKAKKVYVCNVMTQAGETMGYTAFDHVQALHDHLGQPFINTAIVNNREIPCELRKSYEEEMSTPVVVDEERFVENNIDVIQEGLAKYDDHVVRHDTLKLASILYSLLMAGDPLEHHHHHH” here?
Its value is “soluble”.

For “MLLKTKHFGEINIDESKIIEFKDGIPGFENLKRYVVLYDGDKNSPFRWLQNVDDGELAFAVVNPFMVVKDYDFEIPDEAVESLGIESILDVMVLSIVVVPEDISKMTMNLKAPVIINTKNNKGMQVVLDTDRYSVRHYIIEELRRQEVNVGAGSDEKEK”, which “soluble on expression in E. coli” value is on record?
The value was “soluble”.

Which “soluble on expression in E. coli” value does the source give for “GSATASDSTRRVSVRDKLLVKEVAELEANLPCTCKVHFPDPNKLHCFQLTVTPDEGYYQGGKFQFETEVPDAYNMVPPKVKCLTKIWHPNITETGEICLSLLREHSIDGTGWAPTRTLKDVVWGLNSLFTDLLNFDDPLNIEAAEHHLRDKEDFRNKVDDYIKRYAR” here?
The value was “soluble”.

Which “soluble on expression in E. coli” value does the source give for “MHHHHHHSSGVDLGTENLYFQSNAMKEELIERFTRYVKIDTQSNEDSHTVPTTPGQIEFGKLLVEELKEVGLTEVTMDDNGYVMATLPANTDKDVPVIGFLAHLDTATDFTGKNVKPQIHENFDGNAITLNEELNIVLTPEQFPELPSYKGHTIITTDGTTLLGADDKAGLTEIMVAMNYLIHNPQIKHGKIRVAFTPDEEIGRGPAHFDVEAFGASFAYMMDGGPLGGLEYESFNAAGAKLTFNGTNTHPGTAKNKMRNATKLAMEFNGHLPVEEAPEYTEGYEGFYHLLSLNGDVEQSKAYYIIRDFDRKNFEARKNTIENIVKQMQEKYGQDAVVLEMNDQYYNMLEKIEPVREIVDIAYEAMKSLNIEPNIHPIRGGTDGSQLSYMGLPTPNIFTGGENYHGKFEYVSVDVMEKAVQVIIEIARRFEEQA” here?
The value was “soluble”.

With “MGSDKIHHHHHHADDDKPIQVSQMPQKAQQFIKQHFAGSNIAMAKVESDFLQKSYDVIFTDGNKVEFDKKGNWTEVNCKFSVVPQGIIPSPIQKYTATNYPDAKVLKIERDKTDYEVKLSNGWELKFDSKFNLIDIDN” as the sequence, how does the “soluble on expression in E. coli” value read?
Its value is “not soluble”.

For “GEIWVYIDHIGEKPNRASFEIMGEARRIADLMDTSLSAVMVGGEATKSLIEETFEYGADKVYFVETKGFDRYDNEVYTRALAKVIKKYKPEAVFFPGTKNARELASTTAIEVDTGLIADCTNFDVDDKGVLLSTRPDFGGKEMSTIICPRHRPVMVTVRAGVFMPLPRVPGRKGELAREEIDDLFTRLKVLDYRVIEKRNI”, which “soluble on expression in E. coli” value is on record?
Its value is “not soluble”.

Which “soluble on expression in E. coli” value does the source give for “MTLLSPGIELKETTVQSTVVNNSTGTAALAGKFQWGPAFQIKQVTNEVDLVNTFGQPTAETADYFMSAMNFLQYGNDLRVVRAVDRDTAKNSSPIAGNIEYTISTPGSNYAVGDKITVKYVSDDIETEGKITEVDADGKIKKINIPTAKIIAKAKEVGEYPTLGSNWTAEISSSSSGLAAVITLGKIITDSGILLAEIENAEAAMTAVDFQANLKKYGIPGVVALYPGELGDKIEIEIVSKADYAKGASALLPIYPGGGTRASTAKAVFGYGPQTDSQYAIIVRRNDAIVQSVVLSTKRGGKDIYDSNIYIDDFFAKGGSEYIFATAQNWPEGFSGILTLSGGLSSNAEVTAGDLMEAWDFFADRESVDVQLFIAGSCAGESLETASTVQKHVVSIGDVRQDCLVLCSPPRETVVGIPVTRAVDNLVNWRTAAGSYTDNNFNISSTYAAIDGNYKYQYDKYNDVNRWVPLAADIAGLCARTDNVSQTWMSPAGYNRGQILNVIKLAIETP” here?
The value was “soluble”.
